To fix the notation:
T1: NF-κB2/p100, endogenous (human, UniProt Q00653 1-900)
T1 construct: mature
T1 sequence (looked up): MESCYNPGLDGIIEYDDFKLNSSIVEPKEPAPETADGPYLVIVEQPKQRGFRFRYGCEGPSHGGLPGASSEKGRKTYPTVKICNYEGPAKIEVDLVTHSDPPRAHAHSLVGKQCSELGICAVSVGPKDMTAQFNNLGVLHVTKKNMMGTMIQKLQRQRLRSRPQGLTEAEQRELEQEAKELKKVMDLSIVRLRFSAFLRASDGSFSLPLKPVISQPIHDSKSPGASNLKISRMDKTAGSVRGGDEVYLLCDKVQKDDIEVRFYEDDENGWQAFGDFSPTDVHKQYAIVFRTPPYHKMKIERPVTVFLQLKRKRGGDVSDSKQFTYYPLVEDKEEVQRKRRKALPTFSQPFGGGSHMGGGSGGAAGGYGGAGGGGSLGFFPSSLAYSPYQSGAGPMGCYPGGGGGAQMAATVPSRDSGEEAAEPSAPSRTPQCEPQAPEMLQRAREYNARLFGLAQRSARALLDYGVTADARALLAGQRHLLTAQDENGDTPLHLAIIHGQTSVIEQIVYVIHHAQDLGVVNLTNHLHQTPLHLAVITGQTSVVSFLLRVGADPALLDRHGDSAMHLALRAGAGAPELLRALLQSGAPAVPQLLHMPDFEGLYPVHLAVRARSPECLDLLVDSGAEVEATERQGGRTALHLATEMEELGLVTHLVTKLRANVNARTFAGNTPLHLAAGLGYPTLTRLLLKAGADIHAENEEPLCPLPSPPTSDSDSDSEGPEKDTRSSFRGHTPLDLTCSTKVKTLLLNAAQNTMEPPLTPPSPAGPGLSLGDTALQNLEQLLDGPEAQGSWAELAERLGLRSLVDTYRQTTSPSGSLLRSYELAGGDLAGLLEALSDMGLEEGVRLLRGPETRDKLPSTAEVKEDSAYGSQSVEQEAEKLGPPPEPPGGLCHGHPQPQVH

T2: p55 TNF receptor, endogenous in Ramos cells (human, UniProt P19438 30-455)
T2 construct: whole, on cells; TNF-receptor complex precipitated as described by Zhang et al., 2000
T2 sequence (looked up): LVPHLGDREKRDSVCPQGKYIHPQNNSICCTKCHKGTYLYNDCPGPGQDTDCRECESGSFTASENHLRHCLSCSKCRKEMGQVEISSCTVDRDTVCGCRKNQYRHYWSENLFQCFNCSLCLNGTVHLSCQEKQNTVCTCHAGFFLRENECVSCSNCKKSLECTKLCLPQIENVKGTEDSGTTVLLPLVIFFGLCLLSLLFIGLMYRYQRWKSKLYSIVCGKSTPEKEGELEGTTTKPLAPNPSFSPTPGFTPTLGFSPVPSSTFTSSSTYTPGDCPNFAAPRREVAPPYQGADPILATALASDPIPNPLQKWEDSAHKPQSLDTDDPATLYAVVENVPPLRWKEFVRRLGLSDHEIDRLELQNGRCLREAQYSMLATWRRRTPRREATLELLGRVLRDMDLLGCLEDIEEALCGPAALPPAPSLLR

B1: NF-κB2/p52, endogenous (other, human, UniProt Q00653 1-454, looked up)
chain: MESCYNPGLDGIIEYDDFKLNSSIVEPKEPAPETADGPYLVIVEQPKQRGFRFRYGCEGPSHGGLPGASSEKGRKTYPTVKICNYEGPAKIEVDLVTHSDPPRAHAHSLVGKQCSELGICAVSVGPKDMTAQFNNLGVLHVTKKNMMGTMIQKLQRQRLRSRPQGLTEAEQRELEQEAKELKKVMDLSIVRLRFSAFLRASDGSFSLPLKPVISQPIHDSKSPGASNLKISRMDKTAGSVRGGDEVYLLCDKVQKDDIEVRFYEDDENGWQAFGDFSPTDVHKQYAIVFRTPPYHKMKIERPVTVFLQLKRKRGGDVSDSKQFTYYPLVEDKEEVQRKRRKALPTFSQPFGGGSHMGGGSGGAAGGYGGAGGGGSLGFFPSSLAYSPYQSGAGPMGCYPGGGGGAQMAATVPSRDSGEEAAEPSAPSRTPQCEPQAPEMLQRAREYNARLFGLA
B2: RelB, endogenous (other, human, UniProt Q01201 1-579, looked up)
chain: MLRSGPASGPSVPTGRAMPSRRVARPPAAPELGALGSPDLSSLSLAVSRSTDELEIIDEYIKENGFGLDGGQPGPGEGLPRLVSRGAASLSTVTLGPVAPPATPPPWGCPLGRLVSPAPGPGPQPHLVITEQPKQRGMRFRYECEGRSAGSILGESSTEASKTLPAIELRDCGGLREVEVTACLVWKDWPHRVHPHSLVGKDCTDGICRVRLRPHVSPRHSFNNLGIQCVRKKEIEAAIERKIQLGIDPYNAGSLKNHQEVDMNVVRICFQASYRDQQGQMRRMDPVLSEPVYDKKSTNTSELRICRINKESGPCTGGEELYLLCDKVQKEDISVVFSRASWEGRADFSQADVHRQIAIVFKTPPYEDLEIVEPVTVNVFLQRLTDGVCSEPLPFTYLPRDHDSYGVDKKRKRGMPDVLGELNSSDPHGIESKRRKKKPAILDHFLPNHGSGPFLPPSALLPDPDFFSGTVSLPGLEPPGGPDLLDDGFAYDPTAPTLFTMLDLLPPAPPHASAVVCSGGAGAVVGETPGPEPLTLDSYQAPGPGDGGTASLVGSNMFPNHYREAAFGGGLLSPGPEAT
notes: mature
B3: C-terminal part of SIVA (amino acids 123-175 in SIVA1 or 58-110 in SIVA2), yeast two-hybrid clone (other)
chain: GKAVCGQCERALCGQCVRTCWGCGSVACTLCGLVDCSDMYEKVLCTSCAMFET
notes: Clone from a human bone marrow two-hybrid library; also called SIVA clone; C-terminal SIVA fragment; not shown: Gal4 fusion partner of the library clone / pGADT7 or pGBKT7 vector; not specified
B4: IκBα, endogenous (other, human, UniProt P25963 1-317, looked up)
chain: MFQAAERPQEWAMEGPRDGLKKERLLDDRHDSGLDSMKDEEYEQMVKELQEIRLEPQEVPRGSEPWKQQLTEDGDSFLHLAIIHEEKALTMEVIRQVKGDLAFLNFQNNLQQTPLHLAVITNQPEIAEALLGAGCDPELRDFRGNTPLHLACEQGCLASVGVLTQSCTTPHLHSILKATNYNGHTCLHLASIHGYLGIVELLVSLGADVNAQEPCNGRTALHLAVDLQNPDLVSLLLKCGADVNRVTYQGYSPYQLTWGRPSTRIQQQLGQLTLENLQMLPESEDEESYDTESEFTEFTEDELPYDDCVFGGQRLTL
notes: mature

The target of the assay “RelB, endogenous” is B2. The assay is described as follows: anti-RelB immunoprecipitation from nuclear extracts of Ramos cells, western blot. The protocol:
(§1) FIG. 3g is an immunoprecipitation analysis with RelB of various NF-κB proteins from nuclear extracts of the Ramos cells, 15 minutes and 4 hours after the application of TNF or CD70 to the cells. Levels of p100, NS and p52 were detected by western blot analysis.
(§2) For immunoprecipitation of the NF-κB proteins, nuclear extracts from 10-20×10⁶ cells were diluted to achieve the following composition: 0.5% NP-40, 10 mM HEPES pH 7.9, 150 mM NaCl, 1 mM EDTA, 1 mM EGTA, 1 mM dithiothreitol (DTT), 1 mM PMSF, and 1× complete protease inhibitor cocktail. Anti-RelB antibody preadsorbed to protein-A-Sepharose beads (Amersham Biosciences) was incubated with precleared nuclear lysates for 2 hours at 4° C. The immunoprecipitates were analyzed by SDS-PAGE using 4-12% Bis-Tris NuPAGE gels (Invitrogen), and the gels were subjected to western blotting as described above.
For orientation: Immunoblotting shows a protein as a band on a membrane.

The target in a further assay is T1, NF-κB2/p100, endogenous. Described as above. The procedure: as §1, §2
Assay [1] addresses T3, NIK 624-947 (C-terminal part of NIK), yeast two-hybrid construct (human, UniProt Q99558 624-947).
T3 construct: Yeast two-hybrid construct used in the β-galactosidase assay in SFY526 yeast; also called C-terminally mutant (NIK 624-947); the C-terminal portion of NIK; not shown: Gal4 fusion partner from pGBKT7 or pGADT7
Kind of assay: yeast two-hybrid, β-galactosidase colour assay in SFY526. The protocol: FIG. 1a illustrates yeast two-hybrid binding assays of NIK to SIVA. The binding of NIK and its C-terminally mutant (NIK 624-947) to the C-terminal part of SIVA (amino acids 123-175 in SIVA1 or 58-110 in SIVA2) or TRAF2, was assessed using transformed SFY526 yeast. The development of a strong color reaction within 1 hour and 3 hours is indicted as ‘++’ and ‘+’, respectively; ‘−’ indicates no color development within 24 h.
A BamHI/XhoI digested NIK insert from the pcNIK vector was subcloned into BamHI/SalI sites of the Gal4 DNA-binding domain vector pGBKT7 (Clontech). A pre-transformed human bone marrow library (HL4053AH, Clontech) was subjected to two-hybrid screening using pGBKT7-NIK as the bait, according to the manufacturer's instructions (Yeast protocol handbook, Clontech—www.clontech.com) Positive clones were identified by quadruple selection and β-galactosidase activity assay. Binding of the SIVA clone to NIK and NIK624-947 was reconfirmed and binding of NIK to TRAF2 was assessed-by a β-galactosidase expression assay using the yeast SFY526 reporter strain (Clontech) and the pGBKT7 and pGADT7 vectors.

Assay [2] has as its target T2, p55 TNF receptor, endogenous in Ramos …. Kind of assay: western blot of the p55 TNF receptor complex from Ramos cells (FIG. 6a). The procedure:
Transfections, immunoblotting and immunoprecipitations were performed as described in Example 2 and Example 3 of the Examples section. For immunoprecipitation of the CD70/CD27 ligand-receptor complexes from resting PBMC and Ramos cells, cell lysates were prepared as described for the kinase tests aforementioned and incubated for 4 hours at 4° C. with 25 μl of 50% M2-FLAG agarose beads per ml of lysate. The TNF-receptor complex was precipitated as described (Zhang et al., 2000). The signalosome from cell lysates was immunoprecipitated using a 1:1 mixture of two different antibodies against IKK1 (M-280 and H-744, Santa Cruz). Immunoprecipitation was allowed to continue for 2 hours at 4° C., using 10 μg of anti-IKKα antibodies adsorbed to 25 μl of 50% protein-A-Sepharose beads per ml of lysate.

T3 sequence (Q99558 624-947): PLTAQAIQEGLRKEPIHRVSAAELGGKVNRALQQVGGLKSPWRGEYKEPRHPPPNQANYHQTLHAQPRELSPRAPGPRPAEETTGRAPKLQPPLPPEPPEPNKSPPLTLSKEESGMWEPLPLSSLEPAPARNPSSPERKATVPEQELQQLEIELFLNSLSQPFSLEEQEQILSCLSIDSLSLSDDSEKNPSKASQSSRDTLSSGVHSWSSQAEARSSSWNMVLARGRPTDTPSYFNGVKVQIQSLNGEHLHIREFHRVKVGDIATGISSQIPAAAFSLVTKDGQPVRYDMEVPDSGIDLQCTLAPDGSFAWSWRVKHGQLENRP

For the molecule B1, in the assay with RelB, endogenous, the binding result is listed as “binds”. For the molecule B2, the binding result with NF-κB2/p100, endogenous was “binds”. Turning to B3, the binding result in assay [1] was “binds”. For B4, in assay [2], the binding result is listed as “binds”.

The record behind these values is patent US20080025968A1 (YEDA RESEARCH AND DEVELOPMENT, published 2008).
